{"source": "paper PMC5427998", "about": "(Chemical Science, 2017)", "origin": "cited, not measured here", "conditions": "95 °C", "note": "Bridges are numbered along the chain shown (N, C = ends). Where no end group is shown, it is not given here."}
{"substance": "Microcin J25 (GGAGHVPEYFVGIGTPISFYG; lactam N-8; UniProt Q9X2V7 38-58, looked up) [MccJ25]", "values": [{"measurement": "thermal denaturation / retention of threaded structure", "value": "did not denature"}]}
